These results are taken from patent publication US20230287120A1 (ALLOGENE THERAPEUTICS, published 2023).

The labels stand for the following.
T1: Flag tagged recombinant DLL3 (Adipogen) (Homo sapiens (Human), UniProt Q9NYJ7 27-492)
T1 construct: Bought reagent; also called Flag-DLL3
T1 sequence: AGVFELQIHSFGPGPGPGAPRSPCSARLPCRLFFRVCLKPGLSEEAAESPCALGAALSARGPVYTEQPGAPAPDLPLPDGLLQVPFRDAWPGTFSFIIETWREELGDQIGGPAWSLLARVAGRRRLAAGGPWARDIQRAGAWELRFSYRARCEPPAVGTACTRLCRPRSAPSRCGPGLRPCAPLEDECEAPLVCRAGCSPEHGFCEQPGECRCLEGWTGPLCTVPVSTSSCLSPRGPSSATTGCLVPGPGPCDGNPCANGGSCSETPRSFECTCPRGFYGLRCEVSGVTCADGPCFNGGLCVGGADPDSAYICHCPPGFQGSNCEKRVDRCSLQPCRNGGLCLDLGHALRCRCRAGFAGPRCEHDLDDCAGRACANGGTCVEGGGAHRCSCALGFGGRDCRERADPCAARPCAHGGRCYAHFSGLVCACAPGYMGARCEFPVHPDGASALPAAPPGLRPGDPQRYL

B1: 17A2 (other)
CAR: QVQLQESGPGLVKPSGTLSLTCVVFGDSISSSNWWSWVRQPPGKGLEWIGEVFHSGSTNYNPSLKSRVTISVDKSKNQFSLKLSSVTAADTAVYYCARAAVAGALDYWGQGTLVTVSSGGGGSGGGGSGGGGSGGGGSDIVMTQSPDSLAVSLGERATINCKSSQSVLYSSNNKNYLAWYQQKPGQPPNLLVYWASTRESGVPDRFSGAGSGTDFTLTISSLQAEDVAVYYCQQYYGTSWTFGQGTKVEIKTTTPAPRPPTPAPTIASQPLSLRPEACRPAAGGAVHTRGLDFACDIYIWAPLAGTCGVLLLSLVITKRGRKKLLYIFKQPFMRPVQTTQEEDGCSCRFPEEEEGGCELRVKFSRSADAPAYQQGQNQLYNELNLGRREEYDVLDKRRGRDPEMGGKPRRKNPQEGLYNELQKDKMAEAYSEIGMKGERRRGKGHDGLYQGLSTATKDTYDALHMQALPPR
notes: also called anti-DLL3 CAR with 17A2 scFv, on primary T cells
B2: 11H7 (other)
CAR: QVQLQQWGAGLLKPSETLSLTCAVYGGSFSAYYWNWIRQPPGKGLEWIGEINHSGSTNYNPSLKSRVTISVDTSKNQFSLNLTSLTAADTAVYYCARGLDSSGWYPFDYWGQGTLVTVSSGGGGSGGGGSGGGGSGGGGSDIQMTQSPSSVSASVGDRVTITCRASQGISSWLAWYQQKPGKAPKLLIYAASSLQSGVPSRFSGSGSGTDFTLTISSLQPEDFATYYCQQADSFPFTFGPGTKVDIKTTTPAPRPPTPAPTIASQPLSLRPEACRPAAGGAVHTRGLDFACDIYIWAPLAGTCGVLLLSLVITKRGRKKLLYIFKQPFMRPVQTTQEEDGCSCRFPEEEEGGCELRVKFSRSADAPAYQQGQNQLYNELNLGRREEYDVLDKRRGRDPEMGGKPRRKNPQEGLYNELQKDKMAEAYSEIGMKGERRRGKGHDGLYQGLSTATKDTYDALHMQALPPR
notes: also called anti-DLL3 CAR with 11H7 scFv, on primary T cells
B3: 3F2 (other)
CAR: QVQLQESGPGLVKPSGTLSLTCAVSGGSISSNNWWSWVRQPPGKGLEWIGDIHHSGSTNYKPSLKSRVTISVDKSKNQFSLNLISVTAADTAVYYCAREAGGYFDYWGQGILVTVSSGGGGSGGGGSGGGGSGGGGSDIQMTQSPSTLSASVGDRVTITCRASQSISSWLAWYQQKPGKAPKLLISKASSLESGVPSRFSGSGSGPEFTLTISSLQPADFATYYCQQYNSYSTFGQGTKLEIKTTTPAPRPPTPAPTIASQPLSLRPEACRPAAGGAVHTRGLDFACDIYIWAPLAGTCGVLLLSLVITKRGRKKLLYIFKQPFMRPVQTTQEEDGCSCRFPEEEEGGCELRVKFSRSADAPAYQQGQNQLYNELNLGRREEYDVLDKRRGRDPEMGGKPRRKNPQEGLYNELQKDKMAEAYSEIGMKGERRRGKGHDGLYQGLSTATKDTYDALHMQALPPR
notes: also called anti-DLL3 CAR with 3F2 scFv, on primary T cells
B4: 6H1 (other)
CAR: QITLRESGPTLVKPTQTLTLTCTFSGFSLSTSGLGVGWIRQPPGEALEWLALIYWNDDKRYSPSLKSRLSITKDTSKNQVVLIMTNMDPVDTATYYCVHRRIAAPGSVYWGQGTLVTVSSGGGGSGGGGSGGGGSGGGGSDIQMTQSPSSVSASVGDRVTITCRASQGISSWLAWYQQKPGKAPKLLISAASSLQSGVPSRFSGSGSGTDFTLTISSLQPEDFATYYCHQANSFPFTFGQGTKLEIKTTTPAPRPPTPAPTIASQPLSLRPEACRPAAGGAVHTRGLDFACDIYIWAPLAGTCGVLLLSLVITKRGRKKLLYIFKQPFMRPVQTTQEEDGCSCRFPEEEEGGCELRVKFSRSADAPAYQQGQNQLYNELNLGRREEYDVLDKRRGRDPEMGGKPRRKNPQEGLYNELQKDKMAEAYSEIGMKGERRRGKGHDGLYQGLSTATKDTYDALHMQALPPR
notes: also called anti-DLL3 CAR with 6H1 scFv, on primary T cells
B5: 4F9 (other)
CAR: QVQLQQWGAGLLKPSETLSLTCAVYGGSFSGYYWTWIRQPPGKGLEWIGEITHSGSTNYNPSLKSRVSISVDTSKNQFSLKLSSVTAADTAVYYCARGEYGSGSRFDYWGQGTLVTVSSGGGGSGGGGSGGGGSGGGGSAIQMTQSPSSLSASVGDRVAITCRASQGIRDDLGWYQQKPGKAPKLLIYAASSLQSGVPSRFSGSGSDTDFTLTISSLQPEDFATYYCLQDYDYPLTFGGGTKVEIKTTTPAPRPPTPAPTIASQPLSLRPEACRPAAGGAVHTRGLDFACDIYIWAPLAGTCGVLLLSLVITKRGRKKLLYIFKQPFMRPVQTTQEEDGCSCRFPEEEEGGCELRVKFSRSADAPAYQQGQNQLYNELNLGRREEYDVLDKRRGRDPEMGGKPRRKNPQEGLYNELQKDKMAEAYSEIGMKGERRRGKGHDGLYQGLSTATKDTYDALHMQALPPR
notes: also called anti-DLL3 CAR with 4F9 scFv, on primary T cells
B6: 3E4 (other)
CAR: B5 CAR with T35S, T52I, T57S, A96S, G205R
notes: also called anti-DLL3 CAR with 3E4 scFv, on primary T cells
B7: 4G9 (other)
CAR: B5 CAR with T35S, I160L
notes: also called anti-DLL3 CAR with 4G9 scFv, on primary T cells
B8: 2G1 (other)
CAR: QLQLQESGPGLVKPSETLSLTCTVSGGSISSSSYYWGWIRQPPGKGLEWIGSIYYSGNIYHNPSLKSRVSISVDTSKNQFSLRLSSVTAADTAVYYCAREIIVGATHFDYWGQGTLVTVSSGGGGSGGGGSGGGGSGGGGSAIQMTQSPSSLSASVGDRVTITCRASQGIRNDLGWYQQKPGKAPELLIYAASSLQSGVPSRFSGSGSGTDFTLTISSLQPEDFATYYCLQDYNYPLTFGPGTKVDIKTTTPAPRPPTPAPTIASQPLSLRPEACRPAAGGAVHTRGLDFACDIYIWAPLAGTCGVLLLSLVITKRGRKKLLYIFKQPFMRPVQTTQEEDGCSCRFPEEEEGGCELRVKFSRSADAPAYQQGQNQLYNELNLGRREEYDVLDKRRGRDPEMGGKPRRKNPQEGLYNELQKDKMAEAYSEIGMKGERRRGKGHDGLYQGLSTATKDTYDALHMQALPPR
notes: also called anti-DLL3 CAR with 2G1 scFv, on primary T cells
B9: 8E11 (other)
CAR: QVQLQESGPGLVKPSETLSLTCTVSGDSISNYYWTWIRQPPGKGLEWIGYIYYSGTTNSNPSLKSRVTVSLDTSKSQFSLNLSSVTAADTAVYYCARVFNRGFAFDIWGQGTMVTVSSGGGGSGGGGSGGGGSGGGGSEIVLTQSPGTLSLSPGERATLSCRASQRISNTYLAWYQQKPGQAPRLLIYGASSRATGIPDRFSGSGSGTDFTLTISRLEPEDFAAYYCQQYDTSPLTFGGGTKVEIKTTTPAPRPPTPAPTIASQPLSLRPEACRPAAGGAVHTRGLDFACDIYIWAPLAGTCGVLLLSLVITKRGRKKLLYIFKQPFMRPVQTTQEEDGCSCRFPEEEEGGCELRVKFSRSADAPAYQQGQNQLYNELNLGRREEYDVLDKRRGRDPEMGGKPRRKNPQEGLYNELQKDKMAEAYSEIGMKGERRRGKGHDGLYQGLSTATKDTYDALHMQALPPR
notes: also called anti-DLL3 CAR with 8E11 scFv, on primary T cells
B10: 26C8 (other)
CAR: QVQLQESGPGLVKPSETLSLTCTVSDNSISNYYWSWIRQPPGKGLEWIAYIYYSGTTNYNPSLKSRVTISLDTSKNQFSLQLSSVTAADAAVYYCARVFHWGFAFDIWGQGTMVTVSSGGGGSGGGGSGGGGSGGGGSEIVLTQSPGTLSLSPGERATLSCRASQRVSNTYLAWYQQNPGQAPRLLIYGASSRATGIPDRFSGSGSGTDFTLTISRLEPEDFAVYYCQQYGTSPLTFGGGTKVEIKTTTPAPRPPTPAPTIASQPLSLRPEACRPAAGGAVHTRGLDFACDIYIWAPLAGTCGVLLLSLVITKRGRKKLLYIFKQPFMRPVQTTQEEDGCSCRFPEEEEGGCELRVKFSRSADAPAYQQGQNQLYNELNLGRREEYDVLDKRRGRDPEMGGKPRRKNPQEGLYNELQKDKMAEAYSEIGMKGERRRGKGHDGLYQGLSTATKDTYDALHMQALPPR
notes: also called anti-DLL3 CAR with 26C8 scFv, on primary T cells
B11: 9D3 (other)
CAR: QVQLQESGPGLVKPSETLSLTCTVSDDSISNYYWSWIRQPPGKGLEWIGYIFYSGTTNHNPSLKSRLTISLDKAKNQFSLRLSSVTAADTAVYYCARVFNWGFAFDIWGQGTMVTVSSGGGGSGGGGSGGGGSGGGGSEIVLTQSPGTLSLSPGERATLSCRASQRISRTYLAWYQQKPGQAPRLLIYGASSRATGIPDRFTGSGSGTDFTLTISRLEPEDFAVYYCQQYGTSPLTFGGGTKVEINTTTPAPRPPTPAPTIASQPLSLRPEACRPAAGGAVHTRGLDFACDIYIWAPLAGTCGVLLLSLVITKRGRKKLLYIFKQPFMRPVQTTQEEDGCSCRFPEEEEGGCELRVKFSRSADAPAYQQGQNQLYNELNLGRREEYDVLDKRRGRDPEMGGKPRRKNPQEGLYNELQKDKMAEAYSEIGMKGERRRGKGHDGLYQGLSTATKDTYDALHMQALPPR
notes: also called anti-DLL3 CAR with 9D3 scFv, on primary T cells

Substitutions are numbered along the chain they refer to.

One assay concerns the target T1, Flag tagged recombinant DLL3 (Adipogen). Put plainly: flow cytometry, percent of T cells that recognise recombinant DLL3, Donor 419. A general note: Flow cytometry measures light scatter and fluorescence of single cells or particles in a stream.
Experimental: (§1) To determine the percentage of T cells that were successfully transduced with DLL3 CAR, T cells were first incubated with 1 ug/ml Flag tagged recombinant DLL3 (Adipogen) in PBS+1% BSA for 20 minutes at 4 C.
For B1, the Transduction efficiency is 43.3%.

With B2, the Transduction efficiency came to 40.2%.

As to B3, the Transduction efficiency came to 12.2%.

For the molecule B4, the Transduction efficiency turned out to be 2.7%.

For B5, the Transduction efficiency stood at 49.4%.

As for B6, the Transduction efficiency came out at 46.4%.

In the case of B7, the Transduction efficiency is 35.2%.

Take B8: the Transduction efficiency was found to be 49.1%.

A further assay has the same target. Put plainly: flow cytometry, primary T cells with the CAR, 1 ug/ml Flag tagged recombinant DLL3, PE anti-Flag.
Experimental: as §1
For the molecule B1, the “Rec-DLL3 gate, percent of live CD3+ cells” value (from here on “Rec-DLL3 gate, percent”) was found to be 59.1%.

For B9, the “Rec-DLL3 gate, percent” value turned out to be 39.1%.

As to B3, the “Rec-DLL3 gate, percent” value is 58%.

As for B10, the “Rec-DLL3 gate, percent” value was determined as 48.9%.

With B11, the “Rec-DLL3 gate, percent” value was 52.4%.

As for B8, the “Rec-DLL3 gate, percent” value worked out at 69.1%.

For another assay the target is unchanged. Description: flow cytometry, percent of T cells that recognise recombinant DLL3, Donor 116.
Experimental: as §1
On to B1, for which the Transduction efficiency worked out at 68.6%.

B2: the Transduction efficiency came out at 52.4%.

Turning to B9, the Transduction efficiency stood at 39.1%.

In the case of B3, the Transduction efficiency came out at 16.3%.

Regarding B4, the Transduction efficiency came out at 5.81%.

As for B10, the Transduction efficiency worked out at 48.9%.

On to B11, for which the Transduction efficiency was determined as 52.4%.

Consider B5, for which the Transduction efficiency came out at 67.5%.

With B6, the Transduction efficiency was found to be 58.3%.

For B7, the Transduction efficiency amounted to 48.9%.

As for B8, the Transduction efficiency worked out at 66.9%.

The target is the same in the next assay. Put plainly: flow cytometry, percent of T cells that recognise recombinant DLL3, Donor 117.
Experimental: as §1
Regarding B9, the Transduction efficiency was 41.4%.

Regarding B10, the Transduction efficiency stood at 46.9%.

Regarding B11, the Transduction efficiency was determined as 50.8%.
